Square brackets hold non-standard residues; d marks the D form. Peptide text beside a SMILES is read from it. * marks the point of attachment. X1 = C[C@]12CCC(=O)C=C1CC[C@@H]1[C@@H]2[C@@H](O)C[C@@]2(C)[C@H]1CC[C@]2(O)C(=O)COC(=O)C*; Biotin = O=C1N[C@H]2[C@H](CS[C@H]2CCCCC(=O)*)N1; Ahx = NCCCCCC(=O)O
Key:
[1] = test system: CD3+ T cells in inflamed skin; conditions: mouse, in vivo
[2] = test system: full thickness human skin grafted onto the back of a SCID mouse; conditions: in vivo
skin of nude mice [3] = test: Penetration of hydrocortisone-biotinylated D-arginine conjugates into skin of nude mice; assay type: in vivo; conditions: back of nude mice, in PBS, 30, 60, 120 minutes
Procedure: (§1) Slides were analyzed by fluorescent microscopy.

skin of nude mice [4] = test: Penetration of taxol-biotinylated D-arginine conjugates into skin of nude mice; assay type: in vivo; conditions: back of nude mice, 1 mM-100 μM in PBS, 30, 60, 120 minutes
Procedure: as §1

[5] = pH dependent stability / release of releasable Cyclosporin A conjugate; assay type: physicochemical; conditions: acidic pH vs physiological pH, absence of serum
Text: See, e.g., R. E. Handschumacher, et al., Science 226, 544-7 (1984).
Another modification in the design of the releasable conjugate was the use of L-arginine (R), and not D-arginine (r) in the transporter.

[6] = test system: abdominal skin of nude mice; test: Penetration of Cu-DTPA-r7 complex into skin of nude mice (blue color); assay type: in vivo; conditions: abdominal region of nude mice, 15, 30 and 45 minutes
Procedure: Metal diethylenetriaminepentaacetic acid (DTPA) complexes were formed by mixing equimolar amounts of metal salts with DTPA in water for 18 hours. At the end of this time, the solutions were centrifuged, frozen and lyophilized. The dried powder was characterized by mass spectrometry and used in solid phase peptide synthesis. The metal-DTPA complexes were attached to polymers of D- or L-arginine that were still attached to solid-phase resin used in peptide synthesis. The metal-DTPA complexes were attached using an aminocaproic acid spacer. The solid phase peptide synthesis techniques were described in Example 1, with the exception that cleavage of the peptide-DTPA -metal complex in trifluoroacetic acid released the metal. The metal is replaced after HPLC purification and lyophilization of the peptide-DTPA complex. Replacement of the metal involved incubation of equimolar amounts of the metal salt with the peptide-aminocaproic acid-DTPA complex and subsequent lyophilization.
Varying concentrations (1 M to 1 mM) of the Cu-DTPA -aca-r7 complex were applied to the abdominal region of nude mice for 15, 30 and 45 minutes. As controls, an equimolar amount of the Cu-DTPA complex was spotted onto the abdominal region.

For `C/C=C/C[C@@H](C)[C@@H](OC(=O)CSC[C@H](NC(=O)[C@@H](CCCNC(=N)N)NC(=O)[C@@H](CCCNC(=N)N)NC(=O)[C@@H](CCCNC(=N)N)NC(=O)[C@@H](CCCNC(=N)N)NC(=O)[C@@H](CCCNC(=N)N)NC(=O)[C@@H](CCCNC(=N)N)NC(=O)[C@@H](CCCNC(=N)N)NC(=O)CCCCCNC(=O)CCCC[C@@H]1SC[C@@H]2NC(=O)N[C@@H]21)C(N)=O)[C@H]1C(=O)N[C@@H](CC)C(=O)N(C)CC(=O)N(C)[C@@H](CC(C)C)C(=O)N[C@@H](C(C)C)C(=O)N(C)[C@@H](CC(C)C)C(=O)N[C@@H](C)C(=O)N[C@H](C)C(=O)N(C)[C@@H](CC(C)C)C(=O)N(C)[C@@H](CC(C)C)C(=O)N(C)[C@@H](C(C)C)C(=O)N1C` [biotin r7 CsA, B-aca-r7-Cys-O-acyl-Cyclosporin A], the “presence in CD3+ T cells of inflamed skin” value [1] was “found in all CD3[+] T cells” and the “penetration into human skin” value [2] was “penetrated human epidermis and dermis”.
With `C[C@H](NC(=O)[C@H](C)NC(=O)[C@@H](CCCNC(=N)N)NC(=O)[C@@H](CCCNC(=N)N)NC(=O)[C@@H](CCCNC(=N)N)NC(=O)[C@@H](CCCNC(=N)N)NC(=O)[C@@H](CCCNC(=N)N)NC(=O)CCCCCNC(=O)CCCC[C@@H]1SC[C@@H]2NC(=O)N[C@@H]21)C(=O)N[C@@H](CSCC(=O)OCC(=O)[C@@]1(O)CC[C@H]2[C@@H]3CCC4=CC(=O)CC[C@]4(C)[C@H]3[C@@H](O)C[C@@]21C)C(N)=O` ({Biotin-Ahx}-[dR][dR][dR][dR][dR]AAC(X1)-NH2) the “penetration into skin (fluorescent streptavidin staining)” value (shortened to “penetration into skin”) (skin of nude mice [3]) was “very little uptake”.
In the case of `CC(=O)O[C@H]1C(=O)[C@@]2(C)[C@H]([C@H](OC(=O)c3ccccc3)[C@]3(O)C[C@H](OC(=O)[C@H](OC(=O)NCCCC[C@H](NC(=O)[C@@H](CCCNC(=N)N)NC(=O)[C@@H](CCCNC(=N)N)NC(=O)[C@@H](CCCNC(=N)N)NC(=O)[C@@H](CCCNC(=N)N)NC(=O)[C@@H](CCCNC(=N)N)NC(=O)[C@@H](CCCNC(=N)N)NC(=O)[C@@H](CCCNC(=N)N)NC(=O)CCCCCNC(=O)CCCC[C@@H]4SC[C@@H]5NC(=O)N[C@@H]54)C(N)=O)[C@@H](NC(=O)c4ccccc4)c4ccccc4)C(C)=C1C3(C)C)[C@]1(OC(C)=O)CO[C@@H]1C[C@@H]2O` [B-aca-r7-K-taxol], the “penetration into skin” value (skin of nude mice [4]) is reported as “effectively entered into and across the epidermis and into the dermis”.
With `C[C@H](NC(=O)[C@H](C)NC(=O)[C@@H](CCCNC(=N)N)NC(=O)[C@@H](CCCNC(=N)N)NC(=O)[C@@H](CCCNC(=N)N)NC(=O)[C@@H](CCCNC(=N)N)NC(=O)[C@@H](CCCNC(=N)N)NC(=O)[C@@H](CCCNC(=N)N)NC(=O)[C@@H](CCCNC(=N)N)NC(=O)CCCCCNC(=O)CCCC[C@@H]1SC[C@@H]2NC(=O)N[C@@H]21)C(=O)N[C@@H](CSCC(=O)OCC(=O)[C@@]1(O)CC[C@H]2[C@@H]3CCC4=CC(=O)CC[C@]4(C)[C@H]3[C@@H](O)C[C@@]21C)C(N)=O` ({Biotin-Ahx}-[dR][dR][dR][dR][dR][dR][dR]AAC(X1)-NH2) the “penetration into skin” value (skin of nude mice [3]) was “effectively entered into and across the epidermis and into the dermis”.
For `C/C=C/C[C@@H](C)[C@@H](OC(=O)CN(Cc1ccccc1)C(=O)CNCC(=O)N[C@@H](CCCNC(=N)N)C(=O)N[C@@H](CCCNC(=N)N)C(=O)N[C@@H](CCCNC(=N)N)C(=O)N[C@@H](CCCNC(=N)N)C(=O)N[C@@H](CCCNC(=N)N)C(=O)N[C@@H](CCCNC(=N)N)C(=O)N[C@@H](CCCNC(=N)N)C(N)=O)[C@H]1C(=O)N[C@@H](CC)C(=O)N(C)CC(=O)N(C)[C@@H](CC(C)C)C(=O)N[C@@H](C(C)C)C(=O)N(C)[C@@H](CC(C)C)C(=O)N[C@@H](C)C(=O)N[C@H](C)C(=O)N(C)[C@@H](CC(C)C)C(=O)N(C)[C@@H](CC(C)C)C(=O)N(C)[C@@H](C(C)C)C(=O)N1C` [releasable R7 CsA conjugate], the pH stability [5] was “stable at acidic pH, but labile at physiological pH”.
With “Copper-diethylenetriaminepentaacetic Acid Complex [Cu-DTPA]” the “blue color on skin after wiping off” value [6] was “not where the Cu-DTPA alone was spotted”.

— patent US6730293B1, “Compositions and methods for treating inflammatory diseases of the skin” (CellGate, Inc., priority 1999, dated 2004)
